This is an account of results in PMC9468158, “Transmembrane helices mediate the formation of a stable ternary complex of b5R, cyt b5, and SCD1” (Communications Biology, 2022).

The labels stand for the following.
B1: full-length cyt b5, released from the linker-cleaved cyt b5-b5R fusion (natural protein, mouse, UniProt P56395 1-134, looked up)
chain: MAGQSDKDVKYYTLEEIQKHKDSKSTWVILHHKVYDLTKFLEEHPGGEEVLREQAGGDATENFEDVGHSTDARELSKTYIIGELHPDDRSKIAKPSDTLITTVESNSSWWTNWVIPAISALAVALMYRLYMAED
B2: soluble cyt b5 (4-89), wild type (domain or fragment, mouse, UniProt P56395 4-89, looked up)
chain: QSDKDVKYYTLEEIQKHKDSKSTWVILHHKVYDLTKFLEEHPGGEEVLREQAGGDATENFEDVGHSTDARELSKTYIIGELHPDDR
notes: cytochrome b5, mouse, UniProt P56395, soluble domain, residues 4-89; coupled by amines to AR2G biosensors; also called cyt b5 (WT); source: E. coli BL21(DE3) (pET vector), purified (procedures similar to those for the full-length proteins)
B3: soluble cyt b5 (4-89) E43A (domain or fragment, mouse, UniProt P56395 4-89, looked up)
chain: QSDKDVKYYTLEEIQKHKDSKSTWVILHHKVYDLTKFLEAHPGGEEVLREQAGGDATENFEDVGHSTDARELSKTYIIGELHPDDR
notes: cytochrome b5, mouse, UniProt P56395, soluble domain, residues 4-89; coupled by amines to AR2G biosensors; also called cyt b5 (E43A); source: E. coli BL21(DE3) (pET vector), purified (procedures similar to those for the full-length proteins)
B4: soluble cyt b5 (4-89) E49A (domain or fragment, mouse, UniProt P56395 4-89, looked up)
chain: QSDKDVKYYTLEEIQKHKDSKSTWVILHHKVYDLTKFLEEHPGGEAVLREQAGGDATENFEDVGHSTDARELSKTYIIGELHPDDR
notes: cytochrome b5, mouse, UniProt P56395, soluble domain, residues 4-89; coupled by amines to AR2G biosensors; also called cyt b5 (E49A); source: E. coli BL21(DE3) (pET vector), purified (procedures similar to those for the full-length proteins)
B5: cyt b5 M126A, released from the linker-cleaved SCD1-cyt b5-TEV chimera (natural protein, mouse, UniProt P56395 1-134, looked up)
chain: MAGQSDKDVKYYTLEEIQKHKDSKSTWVILHHKVYDLTKFLEEHPGGEEVLREQAGGDATENFEDVGHSTDARELSKTYIIGELHPDDRSKIAKPSDTLITTVESNSSWWTNWVIPAISALAVALAYRLYMAED
notes: cytochrome b5, mouse, UniProt P56395; as m11 with the mutation; source: HEK 293S (BacMam), purified as a fusion with SCD1, cleaved by TEV protease; not shown: GFP, C-terminal, cleaved
B6: cyt b5 L121W, released from the linker-cleaved SCD1-cyt b5-TEV chimera (natural protein, mouse, UniProt P56395 1-134, looked up)
chain: MAGQSDKDVKYYTLEEIQKHKDSKSTWVILHHKVYDLTKFLEEHPGGEEVLREQAGGDATENFEDVGHSTDARELSKTYIIGELHPDDRSKIAKPSDTLITTVESNSSWWTNWVIPAISAWAVALMYRLYMAED
notes: as for B5
B7: cyt b5 Y127A, released from the linker-cleaved SCD1-cyt b5-TEV chimera (natural protein, mouse, UniProt P56395 1-134, looked up)
chain: MAGQSDKDVKYYTLEEIQKHKDSKSTWVILHHKVYDLTKFLEEHPGGEEVLREQAGGDATENFEDVGHSTDARELSKTYIIGELHPDDRSKIAKPSDTLITTVESNSSWWTNWVIPAISALAVALMARLYMAED
notes: as for B5
B8: cyt b5 A122W, released from the linker-cleaved SCD1-cyt b5-TEV chimera (natural protein, mouse, UniProt P56395 1-134, looked up)
chain: MAGQSDKDVKYYTLEEIQKHKDSKSTWVILHHKVYDLTKFLEEHPGGEEVLREQAGGDATENFEDVGHSTDARELSKTYIIGELHPDDRSKIAKPSDTLITTVESNSSWWTNWVIPAISALWVALMYRLYMAED
notes: as for B5
B9: cyt b5 R128A, released from the linker-cleaved SCD1-cyt b5-TEV chimera (natural protein, mouse, UniProt P56395 1-134, looked up)
chain: MAGQSDKDVKYYTLEEIQKHKDSKSTWVILHHKVYDLTKFLEEHPGGEEVLREQAGGDATENFEDVGHSTDARELSKTYIIGELHPDDRSKIAKPSDTLITTVESNSSWWTNWVIPAISALAVALMYALYMAED
notes: as for B5

One assay deals with T1, full-length b5R, released from the linker-cleaved cyt b5-b5R fusion (mouse, UniProt Q9DCN2 1-301).
T1 sequence (looked up): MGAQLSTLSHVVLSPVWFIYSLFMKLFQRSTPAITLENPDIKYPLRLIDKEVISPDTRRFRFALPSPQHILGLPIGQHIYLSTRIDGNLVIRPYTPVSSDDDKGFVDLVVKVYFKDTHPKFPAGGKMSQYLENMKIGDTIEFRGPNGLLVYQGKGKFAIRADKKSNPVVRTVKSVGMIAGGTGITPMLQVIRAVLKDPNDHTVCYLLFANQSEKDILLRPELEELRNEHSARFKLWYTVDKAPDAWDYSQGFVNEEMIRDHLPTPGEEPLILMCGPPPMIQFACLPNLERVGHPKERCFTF
Briefly: cell-based or functional assay.
Conditions: not given
Consider B1, for which the “difference of the electron transfer rate between no NaCl and 150 mM NaCl, stable binary complex” value amounted to 1.04 fold; the “rate of electron transfer from b5R to cyt b5 (k1, reduction of cyt b5) in the stable binary complex against the mixture of the individual proteins, 150 mM NaCl” value is roughly 34 fold.

Another assay concerns the target T2, soluble b5R (24-301) (mouse, UniProt Q9DCN2 24-301).
T2 construct: source: E. coli BL21(DE3) (pET vector), purified (procedures similar to those for the full-length proteins)
T2 sequence (looked up): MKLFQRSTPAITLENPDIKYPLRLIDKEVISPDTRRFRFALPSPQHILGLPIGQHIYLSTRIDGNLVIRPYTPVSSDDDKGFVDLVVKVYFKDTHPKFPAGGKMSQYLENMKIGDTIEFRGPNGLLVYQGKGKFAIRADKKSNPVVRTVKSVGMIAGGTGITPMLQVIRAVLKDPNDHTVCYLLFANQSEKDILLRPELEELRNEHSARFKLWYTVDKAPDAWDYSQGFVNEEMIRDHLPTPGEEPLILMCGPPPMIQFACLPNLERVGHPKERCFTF
Description: BLI; Octet, 30 °C, 1000 rpm; soluble cyt b5 coupled to AR2G (amine reactive) biosensors; analytes soluble b5R or SCD1 at 5, 2.5 and 1.25 µM; FPLC buffer (20 mM HEPES pH 7.5, 150 mM NaCl, 1 mM DDM) plus 0.1% BSA; KD from kon and koff of 1-exponential fits. The following applies: both partners purified.
Take B2: the equilibrium dissociation constant (Kd) (in general, the constant that tells how readily two partners part at equilibrium) worked out at 2.71 µM.
Regarding B3, the Kd stood at 9.63 µM.
As for B4, the dissociation constant Kd was 8.45 µM.

The next assay has as its target T3, SCD1, individual purified protein (mouse, UniProt P13516 1-355).
T3 construct: stearoyl-CoA desaturase-1 (SCD1), mouse, UniProt P13516; surmised: ENLYFQ of the TEV site is left at the C-terminus; source: HEK 293S (BacMam), purified (GFP nanobody resin, released by TEV protease, SEC in 1 mM DDM); not shown: GFP, C-terminal, cleaved
T3 sequence (looked up): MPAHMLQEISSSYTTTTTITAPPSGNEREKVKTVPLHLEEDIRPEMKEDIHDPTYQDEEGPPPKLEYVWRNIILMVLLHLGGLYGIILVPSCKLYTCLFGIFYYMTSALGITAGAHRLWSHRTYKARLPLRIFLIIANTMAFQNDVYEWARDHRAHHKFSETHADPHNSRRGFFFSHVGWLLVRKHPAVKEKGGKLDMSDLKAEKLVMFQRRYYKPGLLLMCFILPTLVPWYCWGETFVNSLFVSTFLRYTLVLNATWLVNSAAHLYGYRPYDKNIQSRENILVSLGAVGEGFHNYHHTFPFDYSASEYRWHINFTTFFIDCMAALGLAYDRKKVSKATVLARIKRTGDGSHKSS
The description is as above. The settings on record: both partners purified.
For B2, the Kd stood at 4.42 µM.
Same read-out and setting: for B3 the value was 11.2 µM; for B4, 8.23 µM.

The target in a further assay is T4, SCD1, released from the linker-cleaved SCD1-cyt b5 fusions (mouse, UniProt P13516 1-355).
T4 construct: stearoyl-CoA desaturase-1 (SCD1), mouse, UniProt P13516; stands for the SCD1 chain of the fusion with full-length cyt b5 (wild type and TM mutants) and of the fusion with the soluble domain of cyt b5; the GFP tag stood at the C-terminus of the fusion; surmised: ENLYFQ is left at the C-terminus after cleavage
T4 sequence (looked up): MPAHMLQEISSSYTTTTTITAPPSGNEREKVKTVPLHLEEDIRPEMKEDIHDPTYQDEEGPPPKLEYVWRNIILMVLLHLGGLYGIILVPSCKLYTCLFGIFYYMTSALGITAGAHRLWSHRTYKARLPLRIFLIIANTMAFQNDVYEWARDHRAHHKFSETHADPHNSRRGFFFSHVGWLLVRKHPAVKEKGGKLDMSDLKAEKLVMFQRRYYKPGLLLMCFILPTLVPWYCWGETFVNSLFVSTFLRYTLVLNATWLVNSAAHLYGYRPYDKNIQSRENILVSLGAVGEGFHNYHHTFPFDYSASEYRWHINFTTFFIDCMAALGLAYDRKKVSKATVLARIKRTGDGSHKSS
Description: SEC; TM mutants in the linker-cleavable fusions, purified and cleaved by TEV protease; SRE-10C SEC-300 (Sepax) on HPLC, FPLC buffer, 0.75 mL/min; heme absorbance (413 nm by the results, 423 nm by the methods) gives the ratio of heterodimer to monomeric cyt b5. The settings on record: both partners purified.
As to B5, the “percent dissociation of the complex” value is roughly 50%.
In the case of B6, the “percent dissociation of the complex” value is roughly 40%.
As to B7, the “percent dissociation of the complex” value is roughly 10%.
On the same count and under the same terms, for B8 the value was roughly 40%.
For the molecule B9, the “percent dissociation of the complex” value is roughly 10%.
